# Test results reported in the RNAGym collection of RNA variant scans (doi:10.1073/pnas.2313332121).
# B1: TPR t1 (parent)
# chain: GACCAAUCUGCCCUCAGAGCUCGAGAACAUCUUCGGAUGCAGAGGAGGCAGGCUUCGGUGGCGCGAUAGCGCCAACGUCCUCAACCUCCAAUGCAUCCCACCACAUGAUGAUGCCUGAAGAGCCUUGGUUUUUUG
# Variants of: B1
# Test: polymerase ribozyme fitness, log enrichment relative to wild type (log ratio); higher = more active; in vitro selection for triplet polymerase activity
# Method in brief: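 In triplicate, a single round of in vitro selection was run on each mutant library, PCR-built and transcribed, covering one subunit of a heterodimeric triplet polymerase ribozyme. Frozen incubation at −7 °C followed annealing with a biotinylated primer, partner subunit and triplets, and extended constructs were then gel-excised, streptavidin-captured and taken through RT-PCR. Fitness is the logarithm of genotype enrichment over wild-type enrichment, from inverse-variance-weighted replicate averages of Illumina-sequenced inputs and outputs. […] only genotypes with ≥10 input reads and ≥1 read per output were kept.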
row,Variant,polymerase ribozyme fitness (log ratio)
1,GACCAAUCUGGCCUCAGAGCUCGAGAACAUCUUCAGAUGCAGAGGAGGCAGGCUUCGGUGGCGCGAUAGCGCCAACGUCCUCAUCCUCCAAUGCAUCCCACCACAUGAUGAUGCCUGAAGAGCCUUGGUUUUUUG [C11G G35A A84U],-4.58
2,GACCAAUCUGGCCUCAGAGCUCGAGAACAUCUUCGGAUGCAGAGGAGGCAGGCUUCGGUGGCGCCAUAGCGCCAACGUCCUCAACCUCCAAUGCAUCCCACCACAUGAUGAUGCCUGAAGAGCCUUGGUUUUUUG [C11G G65C],-5.03
3,GACCAAUCUGGCCUCAGAGCUCGAGAACAUCUUCGGAUGCAGAGGAGGCAGGCUUCGGUGACGCGAUAGCGCCAACGUCCUCAACCUCCAAUGCAUCCCACCACAUGAUGAUGCCUGAAGAGCCUUGGUUUUUUG [C11G G61A],1
4,GACCAAUCUGGCCUCAGAGCUCGAGAACAUCUUCGGAUGCAGAGGAGGCAGGCUUCGGUGCCGCGAUAGCGCCAACGUCCUCAACCUCCAAUGCAUCCCACCACAUGAUGAUGCCUGAAGAGCCUUGGUUUUUUG [C11G G61C],-1.35
5,GACCAAUCUGGCCUCAAAGCUCGAGAACAUCUUCGGAUGCAGAGGAGGCAGGCUUCGGUGGCGCGAUAGCGCCAACGUCCUCAACCUCCAAUGCAUCCCACCACAUGAUGAUGCCUGAAGAGCCUUGGUUUUUUG [C11G G17A],-3.46
6,GACCAAUCUGGCCUCAGAGCUCGAGAACAUCUUCGGAUGCAGAGGAGGCAGGCUUCGGUGGCGCGAUAUCGCCAACGUCCUCAACCUCCAAUGCAUCCCACCACAUGAUGAUGCCUGAAGAGCCUUGGUUUUUUG [C11G G69U],0.709
7,GACCAAUCUGGCCUCAGAGCUCGAGAACAUCUUCGAAUGCAGAGGAGGCAGGCUUCGGUGGCGCGAUAGCGCUAACGUCCUCAACCUCCAAUGCAUCCCACCACAUGAUGAUGCCUGAAGAGCCUUGGUUUUUUG [C11G G36A C73U],-0.782
8,GACCAAUCUGGCCUCAGAGCUCGAGAACAUCUUCGGAUGCAGAGGAGUCAGGCUUCGGUGGCGCGAUAGCGCCAACGUCCUCAACCUCCAAUGCAUCCCACCACAUGAUGAUGCCUGAAGAGCCUUGGUUUUUUG [C11G G48U],-1.46
9,GACCAAUCUGGCCUCAGAGCUCGAGAACAUCUUCGGAUGCAGAGGAGACAGGCUUCGGUGGCGCGAUAGCGCCAACGUCCUCAACCUCCAAUGCAUCCCACCACAUGAUGAUGCCUGAAGAGCCUUGGUUUUUUG [C11G G48A],-0.377
10,GACCAAUCUGGCCUCAGAGCUCGAGAACAUCUUCGGAUACAGAGGAGGGAGGUUUCGGUGGCGCGAUAACGCCAACGUCCUCAACCUCCAAUGCAUCCCACCACAUGAUGAUGCCUGAACAGCCUUGGUUUUUUG [C11G G39A C49G C53U G69A G120C],-2.46
11,GACCAAUCUGGCCUCAGAGCUCGACAACAUCUUCGGAUACAGAGGAGGCAGGCUUAGGUGGCGCGAGAGCGACAACGUCCUAAACCUCCAAUGCAUCCCACCACAUGAUGCUGCCUGAAGAGCCUUGGUUUUUUG [C11G G25C G39A C56A U67G C72A C82A A111C],-6.95
12,GACCAAUCUGGCCUCAGAGCUCGAGAACAUCUUCGGAUGCAGAGGAGCCAGGCUUCGGUGGCGCGAUAGCGCCAACGUCCUCAACCUCCAAUGCAUCCCACCACAUGAUAAUGCCUGAAGAGCCUUGGUUUUUUG [C11G G48C G110A],-1.89
13,GACCAAUCUGGCCUCAGAGCUCGAGAACAUCUUCGGAUGCAGAGGAGGCAGGCUUCGGUGGCGCGAUAGCGCCAACGUCCUCAACCUCCAAUGCAUCCCACCACAUGAUGAUGCCUGAAGAGCGUUGGUUUUUUG [C11G C124G],1.42
14,GACCAAUCUGGCCUCAGAGCUCGAGAACAUCUUCGCAUGCAGAGGAGGCAGGCUUCGGUGGCGCGAUAGCGCCAACAUCCUCAACCUCCAAUGCAUCCCACCACAUGAUGAUGCCUGAAGAGCCUUGGUUUUUUG [C11G G36C G77A],-0.0394
15,GACCAAUCUGGCCUCAGAGCUCGAGAACAUCUUCGGAUGCAGAGGAGGCAGGCUUCGGUGGCGCGAUAGCGCCAACGUCCUCAACCUCCAAUGCAUCCUACCACAUGAUGAUGCCUGAAGAGCCUUGGUUUUUUG [C11G C99U],-2.71
16,GACCAAUCUGGCCUCAGAGCUCGAGAACAUCUUCGGAUGCAGACGAGGCAGGCUUCGGUGGCGCGAUAGCGCCAACAUCAUCAACCUCCAAUGCAUCCCACCACAUGAUGAUGCCUGAAGAGCCUUGGUAAUUUG [C11G G44C G77A C80A U130A U131A],-4.18
17,GACCAAUCUGGCCUCAGAGCUCGAGAACAUCUUCGGAUGCAGAGGAGGCAGGCUUCGGUGGCUCGAUAGCGCCAACGUCCUCAACCUCCAAUGCAUCCCACCACAUGAUGAUGCCUGAAGAGCCUUGGUUUUUUG [C11G G63U],-0.927
18,GACCAAUCUGGCCUCAGAGCUCGAGAACAUCUUCGGAUGCAGAGGAGGCAGGCUUCGGUGGCGCGAUAGCCCCAACGUCCUCAACCUCCAAUGCAUCCCACCACAUGAUGAUGCCUGAAGAGCCUUGGUUUUUUG [C11G G71C],-0.604
19,GACCAAUCUGGCCUCAGAGCUCGAGAACAUCUUCGGAUGCAGAGGAGGCAGGCUUCGGUGGCGCGAUAGCACCAACGUCCUCAACCUCCAAUGCAUCCCACCACAUGAUGAUGCCUGAAGAGCCUUGGUUUUUUG [C11G G71A],-0.503
20,GACCAAUCUGGCCUCAGAGCUCGAGAACAUCUUCGGAUACAGAGGAGGCAGGGUUCGGUGGCGCGAUAGCGCCAACGUCCUCAACCUCCAAUGCAUCCCACCACAUGAUGAUGCCUGAAGAGCCUUGGUUUUUUG [C11G G39A C53G],-0.759
21,GACCAAUCUGGCCUCAGAGCUCGAGAACAUCUUCUGAUGCAGAGGAGGCAGGCUUCGGUGGCGCGAUAGCGCCAACGUCCUAAACCUCCAAUGCAUCCCACCACCUGAUGAUGCCUGAAGAGAAUUGGUUUUUUG [C11G G35U C82A A105C C123A C124A],-5.28
